Results from patent publication US20080214457A1 (METROHEALTH SYSTEM, published 2008).
Where no end group is shown, it is not given here.

Target: T1, H558-YFPf (human, UniProt Q14524 538-577)
T1 construct: Expressed in HEK293 cells; also called hNav1.5 protein fragment centered on H558 fused to YFP; not shown: enhanced yellow fluorescent protein from the pEYFP-N3 vector
Experiment: three-channel FRET normalized to CFP, fragments coexpressed in HEK293 cells
Description: Three-channel FRET ratios were normalized to CFP and reported as FRETc as previously described by Vanderklish and colleagues, Proc Natl Acad Sci USA. 2000; 97:2253-2258. […] In all experiments, FRET was absent from the cell membrane, which is consistent with the inability of these protein fragments to traffic to the membrane. […] More importantly, hNav1.5 interaction occurs preferentially when 1 protein expresses R558 and the other expresses H558.

B1: R558-CFPf (other, human, UniProt Q14524 538-577, looked up)
chain: GSEADFADDENSTAGESESHRTSLLVPWPLRRTSAQGQPS
modifications: also: fused to CFP, linker and end not given here
notes: Expressed in HEK293 cells; not shown: enhanced cyan fluorescent protein from the pECFP-N3 vector
fold increase in FRETc compared with the homotypic FRETc values: 3 fold
